Experimental data reported in patent US20110289632.

Target: 3-ketomyristoyl-ACP (enzymatically prepared from ShACP)

B1: ShMKS1 (methylketone synthase 1 from Solanum habrochaites f glabratum), recombinant, His-tagged (protein)
chain: MEKSMSPFVKKHFVLVHTAFHGAWCWYKIVALMRSSGHNVTALDLGASGINPKQALQIPNFSDYLSPLMEFMASLPANEKIILVGHALGGLAISKAMETFPEKISVAVFLSGLMPGPNIDATTVCTKAGSAVLGQLDNCVTYENGPTNPPTTLIAGPKFLATNVYHLSPIEDLALATALVRPLYLYLAEDISKEVVLSSKRYGSVKRVFIVATENDALKKEFLKLMIEKNPPDEVKEIEGSDHVTMMSKPQQLFTTLLSIANKYK
**Q.** Which “amount of 2-tridecanone formed (in vitro thioesterase activity assay, direct hexane extraction, GC-MS)” value does the source give for B1 here?
**A.** Its value is “slightly higher, but not significantly so (t test, p=0.062, α=0.05), than the amount found in the buffer-incubated sample treated with acid and heat”.
